The results in this text go back to the nanobody polyreactivity screen of Harvey et al. (2022).

The nature of the data set: yeast display, Sf9 membrane polyspecificity reagent, FACS + sequencing; frameworks hold sequencing errors. An outline of the steps:
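A nanobody's polyreactivity label depends on the gate it was sorted from. Yeast display cells were stained with 10% biotinylated, detergent-solubilized Sf9 membrane reagent for 1 hour at 4 °C, enriched on streptavidin microbeads and sorted by FACS. The low and high (top ~1%) gates were set on anti-HA fluorescence for expression and streptavidin fluorescence for reagent binding.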
Turning to “QVQLVESGGGLVQAGGSLRLSCAASGFTFYKYAMGGYRQEPGKERELVATITISGITNYADSVKGRFTISRDNAKNTVYLQMNSLKPEDTAVYYCATVGPWPGEYDYWGQGTQVTVSS”, the “polyreactivity (PSR sort gate)” value is recorded as “low polyreactivity”.

For the sequence “QVQLVESGGGLVQAGGSLRLSCAASGNTFYINAMGWYRQAPGKERELVAAINYSGESTYADSVKGRFTISRDNAKNTVYFQMNSLKPEDTAVYYCAADWYFSVYIDYDTEYDYWGQGTQVTVSS”, the “polyreactivity (PSR sort gate)” value was “low polyreactivity”.

For the sequence “QVQLVDSGGGLFQAGGSLRLSCAASGRTFVGYSMGWYRQAPGKEMEVVATITNDDITYADSVKGRFTISRDNAMNTVYLQMNSLNPEETAVYYCNTSYSYGTAYEQYRYKALYDYWGHGTQVTVSS”, the “polyreactivity (PSR sort gate)” value is “low polyreactivity”.

Turning to “QVQLVESGGGLVQAGGSLRLSCAASGGICRYYAMGWYRPAPGKERELVAAISRGGNTKYADSVKGRFTISRDNAKNTVYLQMNSLKPEDTAVYYCNAYTYNRYYWGQGTQVTVSS”, the “polyreactivity (PSR sort gate)” value is reported as “high polyreactivity”.

Take “QVQLVESGGGLVQAGGSLRLSCAASGFTFSTYAMGWYRQAPGKERELVAAITRSGGSTYYADSVKGRFTISRDNAKNTVYLQMNSLKPEDTAVYYCATDASFYDPDLYPYGYDYWGQGTQVTVSS”: the “polyreactivity (PSR sort gate)” value is “high polyreactivity”.

In the case of “QVQLVESGGGLVQAGGSLRLSCAASGRTFKYKAMGWYRQAPGKERELVDAISSDDSTNYADSVKGRFTISRDKAQNTVYLQMNSLKPEDTAVYYCAARYGYSKWPDRVQAYKHDYWGQGTQVTVSS”, the “polyreactivity (PSR sort gate)” value is listed as “low polyreactivity”.

On to “QVHLVESGGGLVQAGGSLRLSCAASGSIFEAYAMGWSRQAPGKERELVAVISWRGGLTYYPDSVKGRFTISRDNAKNTLYLQMNSLKPDDTAVYYCNKAYWWHQVGLPRNYEYWGQGTQVTVSS”, for which the “polyreactivity (PSR sort gate)” value is “low polyreactivity”.

Consider “QFQIVESGGGLVQAGGSLRLSCDASGSIFTWYAMGWYRQAPGKERELVAAITRGGSTYADSVKGRFTISRDNAKNSVYLQMNSLKPEDTAVYYCNAVYGVYDFNYWGQGTQVTVSP”, for which the “polyreactivity (PSR sort gate)” value is given as “low polyreactivity”.

On to “QVQLVESGGGLVQAGGRLRLSCAASGITFYENAMGWYRQAPGKERELVAAISYSGGNTYPDSVKGRFTISRDNEKNTVYLQMNSLKPEDTAVYYCNADYAGWGEYDYCGQGTQVTVSS”, for which the “polyreactivity (PSR sort gate)” value is on record as “low polyreactivity”.

For the sequence “QVQLVESGGGLVQAGGSLRVSCAASGRTFDSYAMGWYRQAPGKEREFVAAISYSGTSTYYADSVKGRFTISRDNAKNTVYLQMNSLKPEDTAVYYCNAARETRPRDYYWGQGTQVTVSS”, the “polyreactivity (PSR sort gate)” value is reported as “low polyreactivity”.

For “QVQLVESGGGLVQAGGSLRLSCAASGRIFRRYAMGWYRQAPGKEREFVAAISYGGGSTYYADSVKGRFTISRDNAKYTVSLQMNSLTPEDTAVYYCNADVPKSLLLYYPWGYGYWGQGTQVTVSS”, the “polyreactivity (PSR sort gate)” value is “low polyreactivity”.

Consider “QVQLVESGGGLVQAGGSLRLSCAASGRTFGLNVMGWYRQAPGKERELVATISGVGSTNYADSVKGRFTISRDNAKNTVYLQMNSLKPEDTAVYYCDKDPHVGRWWDLYSPYYSWGQGTQVTVSS”, for which the “polyreactivity (PSR sort gate)” value is given as “low polyreactivity”.

Regarding “QVQIVESGGGLVQAGGSLRLSCAASGFTFVYYVMGWYRPAPGKERELVAAINSGGGSTYYADSVKGRFTISRDKAKNTVYLQMKSLKPEDTAVYYCNARVRVRLGRNWSSYYYWGQGTQVTVSS”, the “polyreactivity (PSR sort gate)” value is listed as “high polyreactivity”.

On to “QVQLVESGGGLVQAGGRLRLSCAASGFTFYNYAMGWYRQAPGKERELVAAISWSGGSTHYADSVKGRFTISRDNAKNTVFLQMNSLKPEDTAVYYCAKVGVLGYYTYYYWGQGTQVTVSS”, for which the “polyreactivity (PSR sort gate)” value was “low polyreactivity”.

Consider “QVQLVESGGGFVQAGGSLRLSCAASGLTFWPYVMGWYRQAPGKERELVAAIDDTGITYYADSVKGRFTISRDNAKNTVYLQMNSLKPEDTAVYYCATDWDYYFPWIYPSDAGPEDGYWGQGTQVTVSS”, for which the “polyreactivity (PSR sort gate)” value is “low polyreactivity”.

Take “QVQLHESGGGLVQAGGSMRLSCEASGTISYAGTMGWYRQAPGKEREFVAGIGLGSNTNYADSVKGRYTIIRDNEKKSVYLQMNSLKPEDTSLYYFAVGVYDPLGRPYWCQGTQVTVSS”: the “polyreactivity (PSR sort gate)” value is recorded as “low polyreactivity”.

On to “QDQLVESGGGLVQAGGILSLICAASGITFHSNDMGWYRQAPGKERELVAAISWSDDTTYYADSVKGRFTISRDNAKNTVYLQMNSLKPEDTAVYYCAAEFFGSYGYYEYDYWGQGSQVTVSS”, for which the “polyreactivity (PSR sort gate)” value was “high polyreactivity”.

For the sequence “QVQLVESGGGLVHAGGSLRLSCAASGGIFPHNVMGWYRQAPGKEREMVAAITWSGGRTYYADSVKGRFTNSRDNAKNTVYFQLNSLKPEDTAVYYCAADPFYLTKSGGWGDYWGQGTQVTVSS”, the “polyreactivity (PSR sort gate)” value is on record as “low polyreactivity”.

Take “QVQLVDSGGGIVQAGGSLRVSCAASGRTFWYYTMGWYIQAPGKERELVAAITSGGSKYYSDSVKGRFTISRDNAKNTVYLQMISLNPEDTAVYYCAAYLLPAYSRISNDYWGQGTQVTVSS”: the “polyreactivity (PSR sort gate)” value is “high polyreactivity”.

As to “QVQLEESGGGLVQAGGSLRLSCAASGSTFVEYAMGWYRQAPGKERELVAAITASGGSTYYADSVKGRFTISRDNAKNTVYLQMNSLKPEDTAVYYCAVTTRSRGFRDIDYWGQGTQVTVSS”, the “polyreactivity (PSR sort gate)” value is “low polyreactivity”.

On to “QVQLVESGGGLVQAGGSLRLSCAASGFIFGYYAMGWYRQAPGKERELVAAITRSGGSTRYADSVKGRFTISRDKAKNTVYLQMNSLKPEDTAVYYCNAYAPRQLYGYDYWGQGTQVTVSS”, for which the “polyreactivity (PSR sort gate)” value is “high polyreactivity”.

For “QVQLVESGGGLVQAGGSLRLSCAASGRIFLYYAMGWYRQAPGKERELVAAISFRGGSTYYADSVKGRFTISRDNAKNTVYLQMNSLKPEDTAVYYCNAVRDWGPSQVYDGMDYWGQGTQVTVSS”, the “polyreactivity (PSR sort gate)” value is recorded as “low polyreactivity”.

With “QVQLVESGVGLVQAGGSLRLSSAASGSISYSYAMGWYRQAPGKERELVAAITWVGDSTYYADSVKGRFTISRDNAKNTVYLQMNRQKPEDTAVYYCAADLRFTYPVYRHGGGYDYWGQGTQVTVSS”, the “polyreactivity (PSR sort gate)” value was “low polyreactivity”.

As to “QVQLVESGGGLVQAGGSLRLSCAASGSIFYDNAMGWSRQAPGKERELVASIRWSGDSTYYADSVKGRFTISRDNAKNTVYLQMNSLKPEDTAVYYCAADPVEPYFTAIAYDYWGQGTQVTVSS”, the “polyreactivity (PSR sort gate)” value was “low polyreactivity”.

With “QVQLVESGGGLVQAGGSLRLSCAASGSIFRKYAMGWYRQAPGKERELVARISSGGRTYYADSVKGRFTISRDNAKNTVYLQMNSLKPEDTAVYFCAAAYYQRGRYSWGQGSQVTVSS”, the “polyreactivity (PSR sort gate)” value is listed as “high polyreactivity”.

As to “QVQLVETGGGLVQAGGSLRLSCAASGSTFSDYVMGWYRQAPGKERELVAAITWSGGSTYYADSVKGRFTISRDNAKNTVYLQMNSLKPEDTAVYYCAADPTASGHFLGQVDYWGQGTQVTVSS”, the “polyreactivity (PSR sort gate)” value was “high polyreactivity”.

In the case of “QVQLVESGGGLVQAGGSLPLSCAASGLTLYGNAMGWYRQAPAKEREMVADISLSGGRTFYADSVKGRFTITRDNAKNTVYLQMNSLKPEDTAVYYCAAVCRTGWYYEYYHWGQGSQVTVSS”, the “polyreactivity (PSR sort gate)” value is given as “low polyreactivity”.

Consider “QVQLVESGGGLVQAGGSLRLSCAASGFTFSYYVMGWYRPAPGKDRELVAAIDWSGDSTYYPDSVKGRFTISRDNAKNTVYLQMISLKPEDTAVYYCAADQHAYYPYYYWGQGTQVTVSS”, for which the “polyreactivity (PSR sort gate)” value was “low polyreactivity”.

As to “QVQLVESGGGLVQAGGSLRLSCAASGRTFVIYVMGLYRQAPGKERELVARISGSDGGTYYADSVKGRFTISRDNAKNTVYLQMNSLKPEDTAVYYCATARYPVAGLMDYWGQGTQVTVSS”, the “polyreactivity (PSR sort gate)” value was “low polyreactivity”.

In the case of “QVQLVESGGGLVQAGGSLRLSCAASGIIFLNNAMGCYRQAPGKERELVAAITRTSTSTYYADSVKGRFTISRDNAKNTVYLQMNSLKPEDTAVYYSLVYWGQGTQVTVSS”, the “polyreactivity (PSR sort gate)” value is given as “low polyreactivity”.

Turning to “QVQLVESGGGLVQAGGILRLSCAASGSIFSFYAMGWYRQAPGKERELVAAITRSGGTYYADSVKGRFTISRDNAKNTVYLQMNSLKPEDTAVYYCAAQYWYYYIWWEYYYWGQGTQVTVSS”, the “polyreactivity (PSR sort gate)” value was “low polyreactivity”.

As to “QDQLVESGGGLVQAGGSLRLSCAASGFTFVINDMGWYRQAPGKERELVADITSGGDTYYADSVKGRFTISRDNAKNTDYLQMNSLKPEDTAVYYCAADIYPDWIYLLYGYWGQGTQVTVSS”, the “polyreactivity (PSR sort gate)” value is listed as “low polyreactivity”.

For the sequence “QVQLVESGGGLVQAGGSLRLSCAASGFIFNRYAMGWYRQAPGKERELVADITGGSTYYADSVKGRFTISRDNAKNTVYLQMNSLKPEDTAVYYCAADVLRISTQLFRGPGFDSWGQGTQVTVSS”, the “polyreactivity (PSR sort gate)” value was “low polyreactivity”.

As for “QVQLVESGGGLVQAGGSLRLSCAASGSTFYPYAMGWYRQAPGKERELVAAITSGGRTYYADSVKGRFTISRDNAKNTVYLQMNSLKPEDTAVYYCAALQYRRLRDYRHDYWGQGTQVTVSS”, the “polyreactivity (PSR sort gate)” value is reported as “high polyreactivity”.

As for “QVQLVESGGGLVQAGGSLSLSCAASGRTFYTNAMGSSRQAPGKERELVAAISLRDVNTYYADSVKGRFTISRDNAKNTVYLQMNSLKPEDTAVYYCAARSRRRFDWGQGTQVTVSS”, the “polyreactivity (PSR sort gate)” value is given as “high polyreactivity”.

On to “QVQLVESGGGLVQAGGSLRLSCAASGFTFYSNAMGWYRQAPGKERELVAAITSGGNTNYADSVKGRFTISRDNAKNTVYLQMNSLKPEDTAVYYCAAYPPSQRAEYDFWGQGTQVTVSS”, for which the “polyreactivity (PSR sort gate)” value is “low polyreactivity”.

As for “QVHLVESGGGLVQAGGSLRLSCAASGRTFGYYAMGWYRQAPGKERELVATISGRAGRTYYADSVKGRFTISRDNAKNTVYLQMNSLKPEDTAVYYCATRSLQKYYWIANSYGYWGHGTQVTVSS”, the “polyreactivity (PSR sort gate)” value is listed as “high polyreactivity”.

With “QVQLVESGGGLVQAGGSLRLSCAASGSIFYPYAMGWYRQAPGKERELVAAIRWRGGNTYYADSVKGRFTFSRDNAKNTVYLQMNSLKPEDTAVYYCAADGKYLQGFGYYYWGQGTQVTVSS”, the “polyreactivity (PSR sort gate)” value was “high polyreactivity”.

Turning to “QVQLVESGGGIVQAGGSLRLSCAASGNIFSYYAMGWYRQAPGKERELVAAITYRSDSTYYADSVKGRFTISRDNAKNTVYLQMNSLKPEDTAVYYCATEPWYGWGFGYWGQGTQVTVSS”, the “polyreactivity (PSR sort gate)” value is given as “low polyreactivity”.

For “QVQLVESGGGLVQAGGSLRLSCSASGSTFFWNAMGWYRQAPGKESEFVAAISSSSGSTYYADSVKGRFTISRDNAKNTVYLQMNSLKPEDTAVYYCAARPWGNVFDSAVSYDYWGQGTQVTVSS”, the “polyreactivity (PSR sort gate)” value is “low polyreactivity”.
